This assay concerns the target human FGFR1c + KLB receptor complex on HEK293 iLite FGF21 reporter cells (human, UniProt P11362 22-822; Q86Z14 1-1044). The experiment in a line: cell-based or functional assay.

Sequence of human FGFR1c + KLB receptor complex on HEK293 iLite FGF21 reporter cells (P11362 22-822, chain 1 of 2): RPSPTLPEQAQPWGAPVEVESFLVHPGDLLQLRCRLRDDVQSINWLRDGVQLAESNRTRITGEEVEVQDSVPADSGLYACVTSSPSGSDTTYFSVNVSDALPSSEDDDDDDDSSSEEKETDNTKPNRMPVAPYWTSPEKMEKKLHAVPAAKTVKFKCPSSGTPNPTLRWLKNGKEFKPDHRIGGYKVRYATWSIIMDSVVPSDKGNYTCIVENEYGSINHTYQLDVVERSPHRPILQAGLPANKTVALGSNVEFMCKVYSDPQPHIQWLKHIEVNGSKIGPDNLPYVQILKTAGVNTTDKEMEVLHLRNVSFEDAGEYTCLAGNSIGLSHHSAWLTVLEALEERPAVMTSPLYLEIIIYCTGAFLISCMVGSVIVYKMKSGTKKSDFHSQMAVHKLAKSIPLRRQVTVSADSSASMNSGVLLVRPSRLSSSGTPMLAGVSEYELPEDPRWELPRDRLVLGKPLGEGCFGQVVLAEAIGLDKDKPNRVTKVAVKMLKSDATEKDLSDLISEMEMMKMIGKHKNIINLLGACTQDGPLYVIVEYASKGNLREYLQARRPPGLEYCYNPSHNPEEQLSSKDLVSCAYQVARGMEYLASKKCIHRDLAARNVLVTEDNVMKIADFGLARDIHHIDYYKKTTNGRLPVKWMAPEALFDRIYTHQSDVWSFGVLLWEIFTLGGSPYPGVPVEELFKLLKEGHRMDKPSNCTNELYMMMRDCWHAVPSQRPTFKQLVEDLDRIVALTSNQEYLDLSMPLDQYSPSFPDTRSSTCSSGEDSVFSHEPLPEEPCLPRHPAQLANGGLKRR
Sequence of human FGFR1c + KLB receptor complex on HEK293 iLite FGF21 reporter cells (Q86Z14 whole entry, chain 2 of 2): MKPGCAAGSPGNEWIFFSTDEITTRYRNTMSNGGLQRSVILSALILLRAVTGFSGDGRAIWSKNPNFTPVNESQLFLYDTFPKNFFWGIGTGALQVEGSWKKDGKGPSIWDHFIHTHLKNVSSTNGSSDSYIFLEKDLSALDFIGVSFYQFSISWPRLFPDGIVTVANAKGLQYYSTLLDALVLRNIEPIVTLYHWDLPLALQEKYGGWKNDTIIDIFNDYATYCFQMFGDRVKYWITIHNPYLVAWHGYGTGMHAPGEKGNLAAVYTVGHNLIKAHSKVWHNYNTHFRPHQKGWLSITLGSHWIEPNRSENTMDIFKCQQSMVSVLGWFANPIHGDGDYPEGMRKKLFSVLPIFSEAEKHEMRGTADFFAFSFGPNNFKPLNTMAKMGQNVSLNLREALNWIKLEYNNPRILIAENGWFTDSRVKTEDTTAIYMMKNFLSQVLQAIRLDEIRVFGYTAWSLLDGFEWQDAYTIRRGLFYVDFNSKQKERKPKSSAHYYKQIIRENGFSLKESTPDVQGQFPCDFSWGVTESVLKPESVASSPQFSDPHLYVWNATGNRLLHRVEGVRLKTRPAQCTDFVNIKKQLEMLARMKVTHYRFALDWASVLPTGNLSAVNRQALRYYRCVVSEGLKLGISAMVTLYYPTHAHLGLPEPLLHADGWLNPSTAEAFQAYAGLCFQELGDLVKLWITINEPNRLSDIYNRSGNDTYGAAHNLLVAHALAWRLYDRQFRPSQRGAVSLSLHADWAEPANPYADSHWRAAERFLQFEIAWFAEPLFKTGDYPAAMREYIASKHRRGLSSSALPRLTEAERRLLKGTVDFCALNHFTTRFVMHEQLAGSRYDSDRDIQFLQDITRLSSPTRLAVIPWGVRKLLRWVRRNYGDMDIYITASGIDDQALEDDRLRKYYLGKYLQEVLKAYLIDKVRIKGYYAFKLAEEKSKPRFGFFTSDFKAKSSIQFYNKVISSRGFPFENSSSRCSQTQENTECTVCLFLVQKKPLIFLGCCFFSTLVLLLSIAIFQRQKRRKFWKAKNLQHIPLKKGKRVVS

B1: Ab0400 (antibody, IgG4, V domains shown)
VH: QVTLKESGPVLVKPTETLTLTCTVSGFSLNNARVGVSWIRQPPGKALEWLASIWSNDEKSYSTSLKSRLTISKDTSKSQVVLTMTNMDPVDTATYYCARSVVTGGYYYEGMDVWGQGTTVTVSS
VL: SYVLTQPPSVSVAPGQTARITCGGNNIGSESVHWYQQKPGQAPVLVVDDSDRPSGIPERFSGSNSGNTATLTISRVEAGDEADYYCQVFDGNCACVVFGGGTKLTVLG
For B1, the EC50 (in general, the concentration that produces a half-maximal response) is more than 100 nM.

B2: Ab0405 (antibody, IgG4, V domains shown)
VH: QVTLKESGPVLVKPTETLTLTCTVSGFSLNNARVGVSWIRQPPGKALEWLASIWSNDEKSYSTSLKSRLTISKDTSKSQVVLTMTNMDPVDTATYYCARSVVTGGYYYEGMDVWGQGTTVTVSS
VL: SYVLTQPPSVSVAPGQTARITCGGNNIGSESVHWYQQKPGQAPVLVVDDSDRPSGIPERFSGSNSGNTATLTISRVEAGDEADYYCQVFDGNSTHVVFGGGTKLTVLG
Turning to B2, the EC50 was more than 100 nM.

B3: Ab0404 (antibody, IgG4, V domains shown)
VH: QVTLKESGPVLVKPTETLTLTCTVSGFSLNNARVGVSWIRQPPGKALEWLAHIWSNDEKSYSTSLKSRLTISKDTSKSQVVLTMTNMDPVDTATYYCARSVVTGGYYYEGMDVWGQGTTVTVSS
VL: SYVLTQPPSVSVAPGQTARITCGGNNIGSESVHWYQQKPGQAPVLVVDDSDRPSGIPERFSGSNSGNTATLTISRVEAGDEADYYCQVFDGNSTHVVFGGGTKLTVLG
Take B3: the EC50 was more than 100 nM.

B4: Ab0401 (antibody, IgG4, V domains shown)
VH: QVTLKESGPVLVKPTETLTLTCTVSGFSLNNARVGVSWIRQPPGKALEWLAWIFSNDEKSYSTSLKSRLTISKDTSKSQVVLTMTNMDPVDTATYYCARSVVTGGYYYEGMDVWGQGTTVTVSS
VL: SYVLTQPPSVSVAPGQTARITCGGNNIGSESVHWYQQKPGQAPVLVVDDSDRPSGIPERFSGSNSGNTATLTISRVEAGDEADYYCQVFDGNSAHVVFGGGTKLTVLG
Turning to B4, the EC50 was more than 100 nM.

B5: Ab0408 (antibody, IgG4, V domains shown)
VH: QVTLKESGPVLVKPTETLTLTCTVSGFSLNNARVGVSWIRQPPGKALEWLAWIFSNDEKSYSTSLKSRLTISKDTSKSQVVLTMTNMDPVDTATYYCARSVVTGGYYYEGMDVWGQGTTVTVSS
VL: SYVLTQPPSVSVAPGQTARITCGGNNIGSESVHWYQQKPGQAPVLVVDDSDRPSGIPERFSGSNSGNTATLTISRVEAGDEADYYCQVFDGNSTHVVFGGGTKLTVLG
Turning to B5, the EC50 is more than 100 nM.

B6: Ab0406 (antibody, IgG4, V domains shown)
VH: QVTLKESGPVLVKPTETLTLTCTVSGFSLNNARVGVSWIRQPPGKALEWLASIWSNDEKSYSTSLKSRLTISKDTSKSQVVLTMTNMDPVDTATYYCARSVVTGGYYYEGMDVWGQGTTVTVSS
VL: CYVLTQPPSVSVAPGQTARITCGGNNIGSESVHWYQQKPGQAPVLVVDDSDRPSGIPERFSGSNSGNTATLTISRVEAGDEADYYCQVFDGNCTHVVFGGGTKLTVLG
For B6, the EC50 is more than 100 nM.

B7: Ab0403 (antibody, IgG4, V domains shown)
VH: QVTLKESGPVLVKPTETLTLTCTVSGFSLNNARVGVSWIRQPPGKALEWLAWIFSNDEKSYSTSLKSRLTISKDTSKSQVVLTMTNMDPVDTATYYCARSVVTGGYYYEGMDVWGQGTTVTVSS
VL: CYVLTQPPSVSVAPGQTARITCGGNNIGSESVHWYQQKPGQAPVLVVDDSDRPSGIPERFSGSNSGNTATLTISRVEAGDEADYYCQVFDGNCAHVVFGGGTKLTVLG
For the molecule B7, the half-maximal effective concentration (EC50) is more than 100 nM.

B8: Ab0402 (antibody, IgG4, V domains shown)
VH: QVTLKESGPVLVKPTETLTLTCTVSGFSLNNARVGVSWIRQPPGKALEWLAWIFSNDEKSYSTSLKSRLTISKDTSKSQVVLTMTNMDPVDTATYYCARSVVTGGYYYEGMDVWGQGTTVTVSS
VL: SYVLTQPPSVSVAPGQTARITCGGNNIGSESVHWYQQKPGQAPVLVVDDSDRPSGIPERFSGSNSGNTATLTISRVEAGDEADYYCQVFDGNCACVVFGGGTKLTVLG
Take B8: the EC50 is more than 100 nM.

The values above are taken from US20220010021A1 (Sanofi, published 2022).
